Laboratory results from paper PMC4546648.

Target: GST-K15P cytoplasmic domain (aa 347-489) (Kaposi's sarcoma herpesvirus (KSHV, HHV-8)) (UniProt Q9QR69)
Assay: SPR; Biacore X100; GST-K15P cytoplasmic tail amine-coupled to a CM4 chip (207 RU); His-tagged PLCγ2 cSH2 wt or SB injected at 1.5, 3, 6, 12, 24 nM, single cycle kinetics, 30 μl/min, HBS-EP buffer pH 7.4

Row | Substance | Kd
1 | His-tagged PLCγ2 cSH2 S677V/R695L superbinder, purified from E. coli (domain or fragment) | 3.8 nM
2 | His-tagged PLCγ2 cSH2 domain wt, purified from E. coli (from UniProt P16885 1-1265) (domain or fragment) | 5.8 nM
